Measurements reported in US6869925 (Amgen, dated 2005).

Key:
[1] = molecular target: SLPI binding sites on U937 cells (human monocyte cell line; intact cells, PMA-induced cells or plasma membranes) (human); assay: 125I-SLPI saturation binding, U937 cells plus PMA, *SLPI at 2,560 pM
[2] = molecular target: SLPI binding sites on U937 cells (human monocyte cell line; intact cells, PMA-induced cells or plasma membranes) (human); assay: Scatchard plot of 125I-SLPI saturation binding, non-induced U937 cells
[3] = molecular target: SLPI binding sites on HuT78 cells (human T cell line) (human); assay: competition with 125I-SLPI, intact HuT78 cells, cold SLPI at 270 nM
[4] = molecular target: SLPI binding sites on HuT78 cells (human T cell line) (human); assay: competition with 125I-SLPI, intact HuT78 cells, cold SLPI at 0.00 nM
[5] = molecular target: SLPI binding sites on U937 cells (human monocyte cell line; intact cells, PMA-induced cells or plasma membranes) (human); assay: 125I-SLPI saturation binding, intact U937 cells, *SLPI at 40 pM
[6] = molecular target: SLPI binding sites on U937 cells (human monocyte cell line; intact cells, PMA-induced cells or plasma membranes) (human); assay: competition with 125I-SLPI, intact U937 cells, cold SLPI at 26 nM
[7] = molecular target: SLPI binding sites on U937 cells (human monocyte cell line; intact cells, PMA-induced cells or plasma membranes) (human); assay: competition with 125I-SLPI, intact U937 cells, competitor at 860 nM
[8] = molecular target: SLPI binding sites on U937 cells (human monocyte cell line; intact cells, PMA-induced cells or plasma membranes) (human); assay: competition with 125I-SLPI, intact U937 cells, cold SLPI at 84 nM
[9] = molecular target: SLPI binding sites on U937 cells (human monocyte cell line; intact cells, PMA-induced cells or plasma membranes) (human); assay: competition with 125I-SLPI, U937 plasma membranes, competitor at 2750 nM
[10] = molecular target: SLPI binding sites on HuT78 cells (human T cell line) (human); assay: 125I-SLPI saturation binding, intact HuT78 cells, *SLPI at 2560 pM
[11] = molecular target: SLPI binding sites on HuT78 cells (human T cell line) (human); assay: competition with 125I-SLPI, intact HuT78 cells, cold SLPI at 84 nM
[12] = molecular target: SLPI binding sites on elutriated human peripheral blood monocytes (human); assay: 125I-SLPI binding to intact monocytes
[13] = molecular target: SLPI binding sites on U937 cells (human monocyte cell line; intact cells, PMA-induced cells or plasma membranes) (human); assay: 125I-SLPI saturation binding, intact U937 cells, *SLPI at 640 pM
[14] = molecular target: SLPI binding sites on HuT78 cells (human T cell line) (human); assay: competition with 125I-SLPI, intact HuT78 cells, cold SLPI at 0.078 nM
[15] = molecular target: SLPI binding sites on U937 cells (human monocyte cell line; intact cells, PMA-induced cells or plasma membranes) (human); assay: competition with 125I-SLPI, intact U937 cells, competitor at 0.024 nM
[16] = molecular target: SLPI binding sites on U937 cells (human monocyte cell line; intact cells, PMA-induced cells or plasma membranes) (human); assay: 125I-SLPI saturation binding, U937 cells minus PMA, *SLPI at 320 pM
[17] = molecular target: SLPI binding sites on U937 cells (human monocyte cell line; intact cells, PMA-induced cells or plasma membranes) (human); assay: competition with 125I-SLPI, intact U937 cells, competitor at 270 nM
[18] = molecular target: SLPI binding sites on U937 cells (human monocyte cell line; intact cells, PMA-induced cells or plasma membranes) (human); assay: Scatchard plot of 125I-SLPI saturation binding, PMA-induced U937 cells
[19] = molecular target: SLPI binding sites on HuT78 cells (human T cell line) (human); assay: 125I-SLPI saturation binding, intact HuT78 cells, *SLPI at 80 pM
[20] = molecular target: SLPI binding sites on U937 cells (human monocyte cell line; intact cells, PMA-induced cells or plasma membranes) (human); assay: 125I-SLPI saturation binding, U937 cells minus PMA, *SLPI at 2560 pM
[21] = molecular target: SLPI binding sites on U937 cells (human monocyte cell line; intact cells, PMA-induced cells or plasma membranes) (human); assay: 125I-SLPI saturation binding, U937 cells minus PMA, *SLPI at 640 pM
[22] = molecular target: SLPI binding sites on U937 cells (human monocyte cell line; intact cells, PMA-induced cells or plasma membranes) (human); assay: 125I-SLPI saturation binding, intact U937 cells, *SLPI at 160 pM
[23] = molecular target: SLPI binding sites on U937 cells (human monocyte cell line; intact cells, PMA-induced cells or plasma membranes) (human); assay: 125I-SLPI saturation binding, intact U937 cells, *SLPI at 320 pM
[24] = molecular target: SLPI binding sites on U937 cells (human monocyte cell line; intact cells, PMA-induced cells or plasma membranes) (human); assay: competition with 125I-SLPI, U937 plasma membranes, competitor at 83.9 nM
[25] = molecular target: SLPI binding sites on HuT78 cells (human T cell line) (human); assay: 125I-SLPI saturation binding, intact HuT78 cells, *SLPI at 320 pM

Sequence of serine leukocyte protease inhibitor (SLPI) (P03973 26-132): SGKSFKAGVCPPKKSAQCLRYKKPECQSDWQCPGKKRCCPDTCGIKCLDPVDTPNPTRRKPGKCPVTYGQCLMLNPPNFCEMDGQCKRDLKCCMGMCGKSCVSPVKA

bound pM [1]: 215 pM | bound per free [1]: 0.092 | sites bound per cell (sites per cell) [1]: 12900 | specific cpm [1]: 2300 cpm | Kd [2]: 1.1 nM | % *SLPI BOUND [3]: 0% | % *SLPI BOUND [4]: 100% | bound *SLPI (pM) [5]: 9.5 pM | bound per free [5]: 0.311 | sites bound per cell (sites per cell) [5]: 572 | specific cpm [5]: 380 cpm | % *SLPI BOUND [6]: 12% | % *SLPI BOUND [7]: 4% | % *SLPI BOUND [8]: 3.5% | CPM *SLPI BOUND [9]: 1680 cpm | bound pM [10]: 9.98 pM | bound per free [10]: 0.0039 | sites bound per cell (sites per cell) [10]: 501 | specific cpm [10]: 398 cpm | % *SLPI BOUND [11]: 9.3% | *SLPI concentration at saturation (micrograms/ml) [12]: 0.5 | *SLPI concentration required for half-maximal binding [12]: 10 nM | bound *SLPI (pM) [13]: 116 pM | bound per free [13]: 0.221 | sites bound per cell (sites per cell) [13]: 6990 | specific cpm [13]: 4630 cpm | % *SLPI BOUND [14]: 90% | % *SLPI BOUND [15]: 111% | bound *SLPI (pM) [16]: 101 pM | bound per free [16]: 0.461 | sites bound per cell (sites per cell) [16]: 6080 | specific cpm [16]: 1080 cpm | % *SLPI BOUND [17]: 5% | Kd [18]: 1 nM | bound pM [19]: 0.75 pM | bound per free [19]: 0.0095 | sites bound per cell (sites per cell) [19]: 45 | specific cpm [19]: 30 cpm | bound *SLPI (pM) [20]: 593 pM | bound per free [20]: 0.301 | sites bound per cell (sites per cell) [20]: 35700 | specific cpm [20]: 6340 cpm | bound *SLPI (pM) [21]: 207 pM | bound per free [21]: 0.478 | sites bound per cell (sites per cell) [21]: 12500 | specific cpm [21]: 2210 cpm | bound *SLPI (pM) [22]: 32.9 pM | bound per free [22]: 0.259 | sites bound per cell (sites per cell) [22]: 1980 | specific cpm [22]: 1320 cpm | bound *SLPI (pM) [23]: 65.7 pM | bound per free [23]: 0.258 | sites bound per cell (sites per cell) [23]: 3960 | specific cpm [23]: 2620 cpm | CPM *SLPI BOUND [24]: 2070 cpm | bound pM [25]: 2.53 pM | bound per free [25]: 0.0079 | sites bound per cell (sites per cell) [25]: 152 | specific cpm [25]: 101 cpm
Substance: serine leukocyte protease inhibitor (SLPI) (from UniProt P03973 26-132)
